Measured values reported in patent US20120027739A1.

Target: … HLA-A*01 complex (soluble, biotinylated)
Test: BIAcore SPR; pHLA immobilised via biotin, soluble TCR injected

Kd: 6.55 µM
T½: 6.1 s
koff: 0.114 s⁻¹
B1: soluble disulfide-linked MAGE-A3 TCR: alpha chain with variable domain SEQ ID No: 8, reference TCR beta chain (TCR, V domains shown)
V domain 1: KQEVTQIPAALSVPEGENLVLNCSFTDSAIYNLQWFRQDPGKGLTSLLLVRPYQREQTSGRLNASLDKSSGRSTLYIAASQPGDSATYLCAVRPGGAGSYQLTFGKGTKLSVIP
V domain 2: KAGVTQTPRYLIKTRGQQVTLSCSPISGHRSVSWYQQTPGQGLQFLFEYFSETQRNKGNFPGRFSGRQFSNSRSEMNVSTLELGDSALYLCASSPNMADEQYFGPGTRLTVTE
